In US20190233493A1 (Sanofi, published 2019):
*1 amine or outer side, *2 acyl side, *3 side chain or, on linkers, in order; H or OH if unused. Primed or numbered codes have the meaning given here. Side-chain parts run from the residue outwards. [ ]: non-standard residue; d: D form. The star is where a group is joined. PEG4′ = 2-[2-[2-[2-[2-aminoethoxy]ethoxy]ethoxy]ethoxy]propanoyl; Lys(Me3) = C[N+](C)(C)CCCC[C@H](N)C(=O)O; αMeW = C[C@](N)(Cc1c[nH]c2ccccc12)C(=O)O; γGlu = O=C(O)[C@H](CCC(=O)[*:2])N[*:1]; Arg(Me) = CNC(=N)NCCC[C@H](N)C(=O)O; Stearoyl = CCCCCCCCCCCCCCCCCC(=O)*; Palmitoyl = CCCCCCCCCCCCCCCC(=O)*; Cit = NC(=O)NCCC[C@H](N)C(=O)O; αMeK = C[C@](N)(CCCCN)C(=O)O; Nle = CCCC[C@H](N)C(=O)O; PEG2′ = PEG2 spacer unit; PEG2″ = not defined here; Aib = CC(C)(N)C(=O)O

T1: RXFP1 receptor (UniProt Q9HBX9 1-757, limits assumed)
T1 sequence (looked up): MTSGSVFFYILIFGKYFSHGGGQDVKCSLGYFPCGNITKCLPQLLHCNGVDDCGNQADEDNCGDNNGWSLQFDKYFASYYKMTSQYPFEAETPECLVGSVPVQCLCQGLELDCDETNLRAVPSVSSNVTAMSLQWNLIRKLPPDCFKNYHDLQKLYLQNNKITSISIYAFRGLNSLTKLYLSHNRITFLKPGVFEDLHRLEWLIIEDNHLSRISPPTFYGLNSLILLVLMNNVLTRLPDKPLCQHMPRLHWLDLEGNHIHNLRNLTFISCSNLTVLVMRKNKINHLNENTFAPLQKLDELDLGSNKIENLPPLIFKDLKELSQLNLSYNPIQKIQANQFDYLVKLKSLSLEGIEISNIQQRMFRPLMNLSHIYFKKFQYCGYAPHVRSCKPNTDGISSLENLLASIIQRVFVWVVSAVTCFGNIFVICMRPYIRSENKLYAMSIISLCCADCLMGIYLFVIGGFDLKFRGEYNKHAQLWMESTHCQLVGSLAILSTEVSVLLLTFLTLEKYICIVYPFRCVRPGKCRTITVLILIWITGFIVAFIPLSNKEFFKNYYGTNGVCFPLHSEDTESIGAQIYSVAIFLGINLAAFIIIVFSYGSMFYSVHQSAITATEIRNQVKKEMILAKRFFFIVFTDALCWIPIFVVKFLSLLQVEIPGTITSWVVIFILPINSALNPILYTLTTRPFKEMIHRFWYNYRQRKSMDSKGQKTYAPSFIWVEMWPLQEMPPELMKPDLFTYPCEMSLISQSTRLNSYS

B1: peptide of SEQ ID NO: 136 (peptide)
peptide: Ac-LEGREKVRAK(Ac)I[Aib][Aib]EG[Nle]STWSXRKK(Ac)[PEG2′][PEG2′][PEG2′][PEG2′][γGlu][γGlu][γGlu]K([γGlu-Palmitoyl])-NH2
modifications: not fully specified (some residues); printed as Ac-L-E-G-R-E-K-V-R-A-K(Ac)-I-Aib-Aib-E-G-Nle-S-T-W-S-Mly-R-K-K(Ac)-PEG2-PEG2-PEG2-PEG2-gE-gE-gE-K(gE-Palm)-NH2
B2: peptide of SEQ ID NO: 139 (peptide)
peptide: Ac-LEGREKVRAK(Ac)I[Aib][Aib]EG[Nle]STFSXAAK(Ac)[PEG2′][PEG2′][PEG2′][PEG2′][γGlu][γGlu][γGlu]K([γGlu-Palmitoyl])-NH2
modifications: not fully specified (some residues); printed as Ac-L-E-G-R-E-K-V-R-A-K(Ac)-I-Aib-Aib-E-G-Nle-S-T-F-S-Mly-A-A-K(Ac)-PEG2-PEG2-PEG2-PEG2-gE-gE-gE-K(gE-Palm)-NH2
B3: peptide of SEQ ID NO: 122 (peptide)
peptide: LEGREKVRAQIXXEGXSTWSXRKKKX
modifications: Ac-L-E-G-R-E-K-V-R-A-Q-I-Aib-Aib-E-G-Nle-S-T-W-S-Aib-R-K-K-K-PEG4-PEG4-K(gE-gE-gE-gE-gE-Stea)-NH2
B4: peptide of SEQ ID NO: 145 (peptide)
peptide: Ac-LEGREKVRAK(Ac)I[Aib][Aib]EG[Nle]STFSXRKK(Ac)[PEG2′][PEG2′][PEG2′][PEG2′][γGlu][γGlu][γGlu]K([γGlu-Palmitoyl])-NH2
modifications: not fully specified (some residues); printed as Ac-L-E-G-R-E-K-V-R-A-K(Ac)-I-Aib-Aib-E-G-Nle-S-T-F-S-Mly-R-K-K(Ac)-PEG2-PEG2-PEG2-PEG2-gE-gE-gE-K(gE-Palm)-NH2

Target: T1, RXFP1 receptor
Assay: cell-based or functional assay

Binder | EC50 (nM), OVCAR 5 cells (cAMP) [nM] | EMax, OVCAR 5 cells (cAMP) [%]
Ac-LEGREKVRAK(Ac)I[Aib][Aib]EG[Nle]STWS[αMeK][Arg(Me)][Lys(Me3)]K(Ac)K([PEG2′-PEG2′-PEG2′-γGlu-γGlu-γGlu-Stearoyl])-NH2 [peptide of SEQ ID NO: 138] | 0.02 | 91
B1 | 0.03 | 92
Ac-LEGREKVRAK(Ac)I[Aib][Aib]EG[Nle]STWS[αMeK][Cit]AK(Ac)K([PEG2′-PEG2′-PEG2′-PEG2′-γGlu-γGlu-γGlu-Stearoyl])-NH2 [peptide of SEQ ID NO: 132] | 1.7 | 87
Ac-LEGREKVRAK(Ac)I[Aib][Aib]EG[Nle]STWS[Aib]RKK(Ac)[PEG2′][PEG2′][PEG2′]K([γGlu-γGlu-γGlu-Stearoyl])-NH2 [peptide of SEQ ID NO: 14] | 0.04 | 88
Ac-LEGREKVRAK(Ac)I[Aib][Aib]EG[Nle]STWS[αMeK][Cit]KK(Ac)K([PEG2′-PEG2′-PEG2′-γGlu-γGlu-γGlu-Stearoyl])-NH2 [peptide of SEQ ID NO: 129] | 1 | 89
Ac-LEGREKVRAK(Ac)I[Aib][Aib]EG[Nle]STFS[αMeK]RKK(Ac)K([PEG2′-PEG2′-PEG2′-PEG2′-γGlu-γGlu-γGlu-γGlu-Palmitoyl])-NH2 [peptide of SEQ ID NO: 140] | 0.4 | 88
Ac-LEGREKVRAK(Ac)I[Aib][Aib]EG[Nle]STWS[Aib][Arg(Me)]KK(Ac)K([PEG2′-PEG2′-PEG2′-γGlu-γGlu-γGlu-Stearoyl])-NH2 [peptide of SEQ ID NO: 133] | 0.01 | 83
B2 | 0.3 | 92
Ac-LEGREKVRAK(Ac)I[Aib][Aib]EG[Nle]STWS[Aib]RKK[PEG2″][PEG2″][PEG2″][PEG2″]K([γGlu-γGlu-γGlu-γGlu-Stearoyl])-NH2 [peptide of SEQ ID NO: 15] | 0.32 | 92
Ac-LEGREKVRAK(Ac)I[Aib][Aib]EG[Nle]STWS[αMeK][Arg(Me)][Lys(Me3)]K(Ac)K([PEG2′-PEG2′-PEG2′-PEG2′-γGlu-γGlu-γGlu-γGlu-Palmitoyl])-NH2 [peptide of SEQ ID NO: 141] | 0.16 | 87
Ac-LEGREKVRAK(Ac)I[Aib][Aib]EG[Nle]STWS[Aib][Arg(Me)][Lys(Me3)]K(Ac)K([PEG2′-PEG2′-PEG2′-γGlu-γGlu-γGlu-Stearoyl])-NH2 [peptide of SEQ ID NO: 137] | 0.21 | 92
Ac-LEGREKVRAK(Ac)I[Aib][Aib]EG[Nle]STWS[Aib][Cit]AK(Ac)K([PEG2′-PEG2′-PEG2′-γGlu-γGlu-γGlu-Stearoyl])-NH2 [peptide of SEQ ID NO: 126] | 9.6 | 91
Ac-LEGREKVRAK(Ac)I[Aib][Aib]EG[Nle]STWS[Aib]RKK(Ac)[PEG4′]K([γGlu-γGlu-γGlu-Stearoyl])-NH2 [peptide of SEQ ID NO: 123] | 0.38 | 88
Ac-LEGREKVRAK(Ac)I[Aib][Aib]EG[Nle]STWS[αMeK]RKK(Ac)[PEG2′][PEG2′][PEG2′][PEG2′]K([γGlu-γGlu-γGlu-γGlu-Palmitoyl])-NH2 [peptide of SEQ ID NO: 131] | 0.26 | 92
Ac-LEGREKVRAQI[Aib][Aib]EG[Nle]STWS[Aib]RK[PEG2′]K([PEG2′-PEG2′-γGlu-γGlu-γGlu-Palmitoyl])-NH2 [peptide of SEQ ID NO: 13] | 8.1 | 81
B3 | 0.1 | 93
Ac-LEGREKVRAK(Ac)I[Aib][Aib]EG[Nle]ST[αMeW]S[αMeK]RKK(Ac)[PEG2′][PEG2′][PEG2′]K([γGlu-γGlu-γGlu-γGlu-Palmitoyl])-NH2 [peptide of SEQ ID NO: 125] | 0.1 | 89
Ac-LEGREKVRAK(Ac)I[Aib][Aib]EG[Nle]STWS[Aib]RKK(Ac)K([PEG2′-PEG2′-PEG2′-γGlu-γGlu-γGlu-γGlu-Stearoyl])-NH2 [peptide of SEQ ID NO: 128] | 0.22 | 91
Ac-LEGREKVRAK(Ac)I[Aib][Aib]EG[Nle]STFS[Aib]RKK(Ac)[PEG2′][PEG2′][PEG2′][PEG2′]K([γGlu-γGlu-γGlu-Palmitoyl])-NH2 [peptide of SEQ ID NO: 144] | 4.1 | 94
B4 | 0.4 | 99
Ac-LEGREKVRAK(Ac)I[Aib][Aib]EG[Nle]STWS[Aib]RKK(Ac)[PEG4′][PEG4′]K([γGlu-γGlu-γGlu-Stearoyl])-NH2 [peptide of SEQ ID NO: 124] | 0.29 | 88
Ac-LEGREKVRAK(Ac)I[Aib][Aib]EG[Nle]STFS[αMeK]RKK(Ac)[PEG2′][PEG2′][PEG2′][PEG2′]K([γGlu-γGlu-γGlu-γGlu-Palmitoyl])-NH2 [peptide of SEQ ID NO: 143] | 0.4 | 88
Ac-LEGREKVRAK(Ac)I[Aib][Aib]EG[Nle]STWS[αMeK]RAK(Ac)K([PEG2′-PEG2′-PEG2′-PEG2′-γGlu-γGlu-γGlu-Stearoyl])-NH2 [peptide of SEQ ID NO: 135] | 0.95 | 97
Ac-LEGREKVRAK(Ac)I[Aib][Aib]EG[Nle]STWS[Aib]RKK(Ac)K([PEG2′-PEG2′-PEG2′-PEG2′-γGlu-γGlu-γGlu-γGlu-Palmitoyl])-NH2 [peptide of SEQ ID NO: 130] | 0.3 | 93
Ac-LEGREKVRAK(Ac)I[Aib][Aib]EG[Nle]STWS[Aib]R[Lys(Me3)]K(Ac)K([PEG2′-PEG2′-PEG2′-γGlu-γGlu-γGlu-Stearoyl])-NH2 [peptide of SEQ ID NO: 134] | 6.3 | 100
